Earlier results as cited in PMC9836287.

Biological target: CEP250 (Homo sapiens) (UniProt Q9BV73)
Sequence of UniProt Q9BV73 (Q9BV73 whole entry): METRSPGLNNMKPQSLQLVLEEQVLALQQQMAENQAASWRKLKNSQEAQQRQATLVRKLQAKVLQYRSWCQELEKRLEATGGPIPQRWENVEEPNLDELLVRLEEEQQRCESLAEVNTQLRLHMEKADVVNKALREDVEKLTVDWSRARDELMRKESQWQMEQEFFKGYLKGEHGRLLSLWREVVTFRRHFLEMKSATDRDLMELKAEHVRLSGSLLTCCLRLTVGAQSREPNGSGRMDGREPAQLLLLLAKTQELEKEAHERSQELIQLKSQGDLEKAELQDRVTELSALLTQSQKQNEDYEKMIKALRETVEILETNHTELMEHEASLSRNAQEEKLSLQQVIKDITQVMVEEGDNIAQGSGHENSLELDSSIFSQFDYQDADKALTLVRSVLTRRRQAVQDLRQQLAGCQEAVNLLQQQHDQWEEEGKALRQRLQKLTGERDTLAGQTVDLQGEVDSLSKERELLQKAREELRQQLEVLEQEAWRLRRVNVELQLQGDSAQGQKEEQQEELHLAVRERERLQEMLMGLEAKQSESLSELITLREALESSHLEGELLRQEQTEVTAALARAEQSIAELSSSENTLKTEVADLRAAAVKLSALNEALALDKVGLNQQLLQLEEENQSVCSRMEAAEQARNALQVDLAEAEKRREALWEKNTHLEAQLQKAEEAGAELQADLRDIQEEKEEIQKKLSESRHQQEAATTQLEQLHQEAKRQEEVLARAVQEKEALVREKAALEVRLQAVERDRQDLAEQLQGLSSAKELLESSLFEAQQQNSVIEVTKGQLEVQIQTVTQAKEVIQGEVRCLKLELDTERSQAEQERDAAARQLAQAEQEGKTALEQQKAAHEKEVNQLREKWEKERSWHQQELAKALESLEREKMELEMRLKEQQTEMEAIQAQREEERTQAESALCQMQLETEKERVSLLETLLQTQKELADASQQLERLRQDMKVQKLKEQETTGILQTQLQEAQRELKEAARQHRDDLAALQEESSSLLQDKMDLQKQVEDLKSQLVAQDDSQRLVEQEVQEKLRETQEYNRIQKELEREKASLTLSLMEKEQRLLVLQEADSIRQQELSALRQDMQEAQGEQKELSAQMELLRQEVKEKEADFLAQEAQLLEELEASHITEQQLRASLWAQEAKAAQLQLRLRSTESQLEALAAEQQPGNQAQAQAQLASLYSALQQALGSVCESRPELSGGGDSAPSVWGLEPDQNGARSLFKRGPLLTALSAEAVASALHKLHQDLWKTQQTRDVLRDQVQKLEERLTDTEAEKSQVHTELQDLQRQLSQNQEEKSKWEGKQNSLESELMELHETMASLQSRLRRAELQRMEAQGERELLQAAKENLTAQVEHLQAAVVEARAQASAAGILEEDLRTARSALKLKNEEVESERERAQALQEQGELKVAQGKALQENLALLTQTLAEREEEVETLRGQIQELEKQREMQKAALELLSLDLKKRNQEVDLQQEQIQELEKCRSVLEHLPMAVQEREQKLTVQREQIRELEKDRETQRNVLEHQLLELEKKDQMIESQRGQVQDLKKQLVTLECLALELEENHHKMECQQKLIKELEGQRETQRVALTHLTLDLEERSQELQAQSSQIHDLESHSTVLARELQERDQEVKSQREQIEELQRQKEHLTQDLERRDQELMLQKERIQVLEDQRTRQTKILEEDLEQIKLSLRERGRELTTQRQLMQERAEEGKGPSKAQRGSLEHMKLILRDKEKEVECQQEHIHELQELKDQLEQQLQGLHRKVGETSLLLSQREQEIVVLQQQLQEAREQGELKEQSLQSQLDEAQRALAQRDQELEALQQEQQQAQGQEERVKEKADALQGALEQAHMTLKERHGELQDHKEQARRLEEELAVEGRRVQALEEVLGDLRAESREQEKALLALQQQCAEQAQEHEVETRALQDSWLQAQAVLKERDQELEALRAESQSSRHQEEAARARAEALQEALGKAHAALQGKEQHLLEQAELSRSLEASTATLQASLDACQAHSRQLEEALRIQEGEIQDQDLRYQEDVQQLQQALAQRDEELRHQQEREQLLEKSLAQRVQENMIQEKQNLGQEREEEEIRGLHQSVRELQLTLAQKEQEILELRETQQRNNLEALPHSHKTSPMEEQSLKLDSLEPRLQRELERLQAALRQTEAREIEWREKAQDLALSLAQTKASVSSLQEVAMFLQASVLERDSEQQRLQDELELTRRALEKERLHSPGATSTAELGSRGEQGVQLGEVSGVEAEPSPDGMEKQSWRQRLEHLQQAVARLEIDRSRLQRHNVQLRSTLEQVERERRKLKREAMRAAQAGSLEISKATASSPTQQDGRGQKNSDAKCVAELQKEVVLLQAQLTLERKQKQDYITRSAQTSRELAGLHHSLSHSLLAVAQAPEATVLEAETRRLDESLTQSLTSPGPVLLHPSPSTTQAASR

## FKBP12 (from UniProt P62942)
  Kd: 40 nM
